Data reported in patent US20260167712A1, “INHIBITORY ANTIBODIES AGAINST GLUT1” (ICOSAGEN CELL FACTORY OÜ, priority 2022, published 2026).
“Also recorded” adds a separate entry of the source.

Assays:
[1] = biological target: T1, HEK-293-ALL cells transfected with human SLC2A1 (Homo sapiens, UniProt P11166); assay: 2-Deoxyglucose uptake assay (Glucose Uptake-Glo); assay type: cell-based; details: 2-hour incubation, 0.35 nM to 6.89 μM, 1 mM 2DG for 20 min, FIG. 4
T1 construct: expressed in transfected cells; host or cells: HEK-293-ALL
T1 sequence (P11166 1-492): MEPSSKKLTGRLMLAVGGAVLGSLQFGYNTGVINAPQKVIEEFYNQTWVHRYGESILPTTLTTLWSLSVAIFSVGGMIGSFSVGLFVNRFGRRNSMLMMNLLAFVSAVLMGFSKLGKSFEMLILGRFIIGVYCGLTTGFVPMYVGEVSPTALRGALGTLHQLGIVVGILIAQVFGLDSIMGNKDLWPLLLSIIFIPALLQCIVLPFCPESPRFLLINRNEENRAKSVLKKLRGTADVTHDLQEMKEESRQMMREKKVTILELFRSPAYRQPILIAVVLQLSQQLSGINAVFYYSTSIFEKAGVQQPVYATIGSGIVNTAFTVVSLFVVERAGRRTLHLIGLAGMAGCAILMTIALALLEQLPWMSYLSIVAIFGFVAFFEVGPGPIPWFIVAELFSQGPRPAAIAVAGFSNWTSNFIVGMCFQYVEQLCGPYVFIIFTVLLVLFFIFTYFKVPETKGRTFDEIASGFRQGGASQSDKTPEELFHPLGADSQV
Description: To evaluate if the described anti-SLC2A1 antibodies inhibit glucose uptake, a commercial Glucose Uptake-Glo Assay kit (Promega) was utilized according to manufacturer's instructions. In short, HEK-293-ALL cells were transfected with human SLC2A1 expression plasmid and were incubated at 37° C. overnight in the presence of 5% CO2. Cells were washed with 0.5% BSA PBS twice and 7000 cells were plated per well into white clear bottom 96-well plates in 0.5% BSA PBS in the presence of 0.35 nM to 6.89 μM anti-SLC2A1 antibodies or glucose uptake inhibitor BAY-876 (CaymanChem). Cells were incubated for 2 hours at room temperature. Glucose uptake was initiated by the addition of 1 mM 2-deoxyglucose (2DG) and was allowed to proceed for 20 min at 37° C. in the presence of 5% CO2. After adding STOP and neutralization reagents included in the kit, luminescence was measured using GloMax Explorer microplate reader (Promega). Nonspecific luminescence was measured in lysates from cells without (2DG) being added. Data was normalized to nonspecific luminescence and to the average value of luminescence in the presence of no inhibitors.

[2] = system: PC3 prostate cancer cell line; assay: Cell proliferation inhibition assay (Incucyte), PC3; assay type: cell-based; details: alone, FIG. 11
Description: (§1) Incucyte S3 Live cell analysis instrument and Cell-by-Cell analysis software module (Sartorius) were used to evaluate the effect of anti-SLC2A1 antibodies on cancer cell proliferation label-free (FIGS. 5-11). MCF7, PC3 or PANC1 or MIAPACA2 cells were plated on flat bottom tissue culture 96-well plate in […] medium (Ximbio) supplemented with 2.5% FBS. Cells were incubated overnight and 0.02 nM to 13 μM anti-SLC2A1 antibodies, anti-HEL isotype control, PBS or BAY-876 were added to the cells alone or in combination with metformin (CaymanChem), phenformin (Sigma Aldrich) or IACS-010759 (CaymanChem). Cell confluence or object count was measured for 24 to 96 hours with Incucyte S3 and normalized to timepoint 0 h or 4h. anti-SLC2A1 antibodies inhibit cancer cell proliferation alone and especially in combination with complex-I inhibitors metformin, phenformin and IACS-010759. Exemplary antibodies 1G2 #9, 2A2 #12, 2E5 #22, 5G5 #30, 6F12 #33, 7C3 #39 and R14 #54 were used in proliferation assays.

[3] = system: MIAPACA2 pancreatic cancer cell line; assay: Cell proliferation inhibition assay (Incucyte), MIAPACA2; assay type: cell-based; details: alone, FIG. 11
Description: as §1

MCF7 breast cancer cells = assay: Cell proliferation inhibition assay (Incucyte), MCF7; assay type: cell-based; details: for MCF7 cell growth (confluence), single agent: alone, Incucyte; for MCF7 cell growth in combination with phenformin: co-treatment with phenformin, FIGS. 7 and 9
Description: as §1

SLC2A1 pseudotyped VLPs [4] = biological target: T2, SLC2A1 pseudotyped VLPs (Homo sapiens, UniProt P11166); assay: ELISA-based SLC2A1 VLP binding assay; details: 5 μg/mL VLP coating, FIG. 1
T2 sequence (P11166 1-492): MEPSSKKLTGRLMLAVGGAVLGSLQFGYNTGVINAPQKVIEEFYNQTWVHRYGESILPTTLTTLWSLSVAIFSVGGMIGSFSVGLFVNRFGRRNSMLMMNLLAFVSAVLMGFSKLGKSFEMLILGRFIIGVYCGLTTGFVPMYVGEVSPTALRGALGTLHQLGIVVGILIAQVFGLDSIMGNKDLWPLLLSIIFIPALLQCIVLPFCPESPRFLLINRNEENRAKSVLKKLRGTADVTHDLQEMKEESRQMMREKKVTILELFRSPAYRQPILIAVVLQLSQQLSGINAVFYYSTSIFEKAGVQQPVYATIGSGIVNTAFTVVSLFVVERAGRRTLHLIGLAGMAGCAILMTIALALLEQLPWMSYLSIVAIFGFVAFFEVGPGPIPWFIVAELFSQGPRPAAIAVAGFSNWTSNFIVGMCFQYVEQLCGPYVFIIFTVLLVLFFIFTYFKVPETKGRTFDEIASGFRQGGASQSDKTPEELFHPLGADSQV
Description: An ELISA-based VLP binding assay was carried out to compare the EC50 values of antibody clones (FIG. 1). Similarly, ELISA based VLP binding assay was performed to compare the binding of the antibodies to different glucose transporters (FIG. 3). MaxiSorp™ high-capacity binding ELISA plate (Thermo Fisher Scientific, US) were coated with 5 μg/mL SLC2A1, SLC2A2, SLC2A3, SLC2A4 pseudotyped VLPs or MOCK VLPs in PBS overnight. The plate was washed and blocked for 1 h with 0.05% Tween 20, 2% BSA in PBS. Serial dilutions of antibodies were incubated on a washed plate for 1 hour, followed by a 1-hour incubation with goat anti-human IgG horse radish peroxidase (HRP) conjugated (Invitrogen) antibody. TMB (3,3′,5,5′-Tetramethylbenzidine) Solution VII (Biopanda Diagnostics) was used as a substrate for HRP and 0.5 M H2SO4 was used as stop solution. After every step, the wells were washed with 0.05% Tween 20, 0.1% Proclin 300 PBS solution. Absorption at 450 nm was measured with Thermo Scientific™ Multiskan™ FC Microplate Photometer. Exemplary wise used antibodies 1G2 #9, 2A2 #12, 2E5 #22, 5G5 #30, 6F12 #33, 7C3 #39 all bound SLC2A1 VLPs with low nanomolar EC50 values (FIG. 1).

SLC2A1 pseudotyped VLPs [5] = biological target: T3, SLC2A1 pseudotyped VLPs (UniProt P11166 1-492); assay: ELISA
T3 chain: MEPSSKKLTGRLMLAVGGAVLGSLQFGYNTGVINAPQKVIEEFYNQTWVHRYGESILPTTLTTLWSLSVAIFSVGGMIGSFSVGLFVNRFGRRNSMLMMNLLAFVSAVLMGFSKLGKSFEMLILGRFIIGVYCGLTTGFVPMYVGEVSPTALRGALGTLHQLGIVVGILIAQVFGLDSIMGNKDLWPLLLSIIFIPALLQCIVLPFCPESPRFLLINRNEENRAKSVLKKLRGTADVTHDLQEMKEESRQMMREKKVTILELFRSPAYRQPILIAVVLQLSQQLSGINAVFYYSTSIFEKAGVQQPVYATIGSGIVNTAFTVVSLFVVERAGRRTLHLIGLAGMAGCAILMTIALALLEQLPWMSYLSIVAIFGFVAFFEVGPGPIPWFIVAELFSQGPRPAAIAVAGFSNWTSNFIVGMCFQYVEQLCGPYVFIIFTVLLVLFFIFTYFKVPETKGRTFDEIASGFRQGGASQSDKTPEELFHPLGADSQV

Row | Molecule | MCF7 cell growth (confluence), single agent (MCF7 breast cancer cells) | EC50 of binding to SLC2A1 VLPs (SLC2A1 pseudotyped VLPs [4]) | MCF7 cell growth in combination with phenformin (MCF7 breast cancer cells) | EC50 (SLC2A1 pseudotyped VLPs [5]) [nM] | other results
1 | Cc1c(NC(=O)c2cc(C(N)=O)nc3cc(F)ccc23)c(C(F)(F)F)nn1Cc1ccc(C#N)cc1 [BAY-876, reference compound] |  |  |  |  | glucose (2-deoxyglucose) uptake [1]: strong concentration dependent decrease
2 | Cc1nc(-c2nc(-c3ccc(OC(F)(F)F)cc3)no2)nn1Cc1cccc(N2CCC(S(C)(=O)=O)CC2)c1 [IACS-010759, reference compound] | did not influence cell growth |  |  |  | PC3 cell growth, single agent [2]: inhibited; MIAPACA2 cell growth, single agent [3]: inhibited
3 | CN(C)C(=N)N=C(N)N [Metformin, metformin, reference compound] | did not influence cell growth |  |  |  | 
4 | [H]/N=C(/N)N/C(=N/[H])NCCc1ccccc1 [phenformin, reference compound] | did not influence cell growth; also recorded: No growth inhibition |  |  |  | 
5 | 1G2 #9 (antibody, V domains shown) VH: AVTLDESGGGLQTPGGALSLVCKASGFTFSTKGMGWVRQTPGKGLEWVAGISSMRRYTYYAPAVKGRATISRDNGQSTVRLQLSSLRAEDSGTYYCARDATYCSWTTSTCGWSGGTIDAWGHGTEVIVSS VL: ALTQPSSVSANPGETVKITCSGSSGSYGWYQQKSPGSAPVTVIYWDDERPSGIPSRFSGSASGSTATLTITGVQAEDEAVYFCGSIDSSVGYVGIFGAGTTLTVL |  | low nanomolar | No growth inhibition | 4.1 | 
6 | 2A2 #12 (antibody, V domains shown) VH: AVTLDESGGGLQTPGGALSLVCKGSGFTFSTKGMMWVRQAPGKGLEWVAGISSMSRYTYYAPAVKGRATISRDNGQSAVRLQLSSLRAEDTGTYYCARDATYCSWTASTCGWSGGTIDAWGHGTEVIVSS VL: ALTQPSSVSANPGETVKITCSGGYSYYGTYYYSWYQQKSPGSAPVTLIYRNDKRPSDIPSRFSGSGSGSTSTLTITGVQAEDEAVYFCGSYDSSDSGIFGAGTTLTVL |  | low nanomolar | No growth inhibition | 2.9 | 
7 | 7C3 #39 (antibody, V domains shown) VH: AVTLDESGGGLQTPGGALSLVCKASGFTFSTKGMGWVRQTPGKGLEWVAGISSMRRYTYYAPAVKGRATISRDNGQSTVRLQLSSLRAEDSGTYYCARDATYCSWTTSTCGWSGGTIDAWGHGTEVIVSS VL: ALTQPSSVSANLGGTVKITCSGGGSSSYYGWYQQKSPGSAPVTVIYGNDRRPSDIPSRFSGSASGSTATLTITGVQAEDEAVYFCGSADSSDSGSGIFGAGTTLTVL |  | low nanomolar | completely inhibit; also recorded: most potent growth inhibitors | 1.4 | 
8 | 5G5 #30 (antibody, V domains shown) VH: AVTLDESGGGLQTPGGALSLVCKASGFTFSSHAIFWVRQAPDKGLEFVAAISSSSGSWTAYATVVKGRATISRDNGQSTVRLQLNNLRAEDTGTYYCAKAAGSACCYAGSIDAWGHGTEVIVSS VL: ALTQPSSVSANPGETVKITCSGGSGSSYYGWYQQKSPGSAPVTVIYYDDKRPSDIPSRFSGSKSGSTATLTITGVQVEDEAVYYCGTGDGSIAIFGAGTTLTVL |  | low nanomolar | completely inhibit; also recorded: drastically inhibited; also recorded: most potent growth inhibitors | 1.2 | MCF7 cell growth in combination with IACS-010759 (MCF7 breast cancer cells; co-treatment with IACS-010759, FIG. 8): drastically inhibited; MCF7 cell growth in combination with metformin (MCF7 breast cancer cells; co-treatment with metformin, FIG. 6): drastically inhibited
